Data on three molecules can be found in patent US20250340631A1 (HARBOUR BIOMED SHANGHAI, published 2025).

For assay [1], the target named is T1, human CD3 on Jurkat cells (human, UniProt P07766 23-207).
T1 construct: whole, on cells; on cells it stands in the whole CD3/TCR complex; also called CD3-expressing cells
Description: FACS on Jurkat cells.
Description: (§1) Antibodies were assayed for binding affinity by FACS. Test cells include HEK293/hCLDN18.2, HEK293/hCLDN18.1, NUGC4_D8 and Jurkat cells. […] The cell density was adjusted to 10⁶ cells/mL, and 50 μL of the cell suspension was added to each well of a 96-well plate. Antibodies were diluted to different concentrations with FACS buffer, and 50 μL of the antibody dilution was added to each well of the 96-well plate. After 2 h of incubation at 4° C., the plate was washed twice with FACS buffer. […] After 1 h of incubation at 4° C., the plate was washed twice with FACS buffer. The cells were resuspended in fixative solution, and then the fluorescence of the cells was monitored using an FACS instrument (ACEA NovoCyte).

The target of assay [2] is human CLDN18.2 (human). As to the kind of experiment: cell-based or functional assay.
The target in assay [3] is CLDN18.2 of SNU620 cells (methionine to leucine at amino acid 149) (human, UniProt P56856-2 1-261). Description: cell-based or functional assay.
Sequence of CLDN18.2 of SNU620 cells (methionine to leucine at amino acid 149) (P56856 other isoform, or with tags, fused parts or gaps limits assumed): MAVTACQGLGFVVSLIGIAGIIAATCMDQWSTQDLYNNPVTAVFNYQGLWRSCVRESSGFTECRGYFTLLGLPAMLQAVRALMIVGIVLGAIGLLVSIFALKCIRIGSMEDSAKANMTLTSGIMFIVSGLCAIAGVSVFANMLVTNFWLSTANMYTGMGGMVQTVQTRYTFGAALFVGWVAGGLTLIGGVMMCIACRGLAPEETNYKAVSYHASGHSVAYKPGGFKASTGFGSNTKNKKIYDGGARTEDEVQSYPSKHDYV
The target in assay [4] is T2, human CLDN18.2 (human).
T2 construct: the HEK293 line was made with a GenScript plasmid; also called hCLDN18.2
Description: FACS on HEK293/hCLDN18.2 cells.
Description: as §1

In assay [5] the target is T2, human CLDN18.2. As to the kind of experiment: FACS on NUGC4_D8 cells.
Description: as §1
Assay [6] concerns the target T2, human CLDN18.2. Description: FACS on SNU601 cells.
Description: (§2) The binding affinity of an antibody was detected by FACS using human CLDN18.1-expressing HEK293 cells, human CLDN18.2-expressing HEK293 cells, NUGC4_D8 cells and SNU601 cells endogenously expressing human CLDN18.2 (Cobioer, CBP60507). […] The cell density was adjusted to 10⁶ cells/mL, and 50 μL of the cell suspension was added to each well of a 96-well plate. Antibodies were diluted to different concentrations with FACS buffer, and 50 μL of the antibody dilution was added to each well of the 96-well plate. After 2 h of incubation at 4° C., the plate was washed twice with FACS buffer. […] After 1 h of incubation at 4° C., the plate was washed twice with FACS buffer. The cells were resuspended in fixative solution, and then the fluorescence of the cells was monitored using an FACS instrument (ACEA NovoCyte).
Assay [7] addresses T2, human CLDN18.2. As to the kind of experiment: FACS on NUGC4_D8 cells. This is another data set of the same source.
Description: as §2
Assay [8] deals with T2, human CLDN18.2. Description: competition FACS on HEK293/hCLDN18.2 cells; competitor 10 nM biotinylated PR000400.
Description: (§3) This example is to study the binding of anti-human CLDN18.2 HCAb monoclonal antibodies to the epitope region of human CLDN18.2 antigen. Competitive binding experiments were performed at the cellular level using HEK293/hCLDN18.2 cells overexpressing human CLDN18.2. […] Then suspension of HEK293/hCLDN18.2 cells overexpressing human CLDN18.2 were adjusted to 3×10⁶ cells/mL, seeded 50 L/well. The cells were co-incubated at 4° C. for 2 h. The cells in each well were washed twice with 200 μL of pre-cooled FACS buffer (2% FBS in PBS) and centrifuged at 500 g at 4° C. for 5 min, and then the supernatant was discarded. […] The cells in each well were washed twice with 200 μL of pre-cooled FACS buffer (2% FBS in PBS) and centrifuged at 500 g at 4° C. for 5 min, and then the supernatant was discarded. Finally, the cells in each well were resuspended in 200 μL of pre-cooled FACS buffer, and the fluorescence signal values were read using a BD FACS CANTOII.
Assay [9] concerns the target T2, human CLDN18.2. As to the kind of experiment: competition FACS on HEK293/hCLDN18.2 cells; competitor 200 nM biotinylated PR004549.
Description: as §3

T1 sequence (P07766 23-207): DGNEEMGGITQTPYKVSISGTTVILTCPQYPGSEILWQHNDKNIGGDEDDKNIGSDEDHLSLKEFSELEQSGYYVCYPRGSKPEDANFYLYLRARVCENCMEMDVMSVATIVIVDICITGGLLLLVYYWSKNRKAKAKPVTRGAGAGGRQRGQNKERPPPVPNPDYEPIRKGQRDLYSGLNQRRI

B1: PR005399 (bispecific antibody, human IgG1, lambda, L234A L235A)
chain: EVQLVESGGGLVQPGGSLRLSCAASGFTFSSYWMHWVRQVPGKGLVWVSRISSAGSRTIYADSVKGRFTISRDNAKNTLYLQMNSLRAEDTAVYYCARGEDHDILTGYPIRGQGTTVTVSSGGGGSGGGGSGGGGSEVQLVESGGGLVQPGGSLRLSCAASGFTFSSYWMHWVRQVPGKGLVWVSRISSAGSRTIYADSVKGRFTISRDNAKNTLYLQMNSLRAEDTAVYYCARGEDHDILTGYPIRGQGTTVTVSSASEPKSSDKTHTCPPCPAPEAAGGPSVFLFPPKPKDTLMISRTPEVTCVVVDVSHEDPEVKFNWYVDGVEVHNAKTKPREEQYNSTYRVVSVLTVLHQDWLNGKEYKCKVSNKALPAPIEKTISKAKGQPREPQVCTLPPSREEMTKNQVSLSCAVKGFYPSDIAVEWESNGQPENNYKTTPPVLDSDGSFFLVSKLTVDKSRWQQGNVFSCSVMHEALHNHYTQKSLSLSPGK
heavy: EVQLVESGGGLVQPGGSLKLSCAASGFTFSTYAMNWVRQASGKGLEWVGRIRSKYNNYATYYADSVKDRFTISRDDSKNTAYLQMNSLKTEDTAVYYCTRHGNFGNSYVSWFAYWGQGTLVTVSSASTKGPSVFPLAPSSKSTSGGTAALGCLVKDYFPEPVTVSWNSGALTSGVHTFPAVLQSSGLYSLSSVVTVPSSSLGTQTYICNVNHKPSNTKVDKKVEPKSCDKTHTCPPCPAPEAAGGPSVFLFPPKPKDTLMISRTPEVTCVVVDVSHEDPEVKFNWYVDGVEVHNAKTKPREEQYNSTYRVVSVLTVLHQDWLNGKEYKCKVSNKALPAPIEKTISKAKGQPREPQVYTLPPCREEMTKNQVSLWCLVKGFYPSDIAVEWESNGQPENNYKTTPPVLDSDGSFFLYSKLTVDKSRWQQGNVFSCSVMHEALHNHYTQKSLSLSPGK
light: QAVVTQEPSLTVSPGGTVTLTCRSSTGAVTTSNYANWVQQKPGQAPRGLIGGTNKRAPWTPARFSGSLLGDKAALTLLGAQPEDEAEYFCALWYSNLWVFGGGTKLTVLGQPKAAPSVTLFPPSSEELQANKATLVCLISDFYPGAVTVAWKADSSPVKAGVETTTPSKQSNNKYAASSYLSLTPEQWKSHRSYSCQVTHEGSTVEKTVAPTECS
notes: structure 1; CD3 Fab from PR003886, CLDN18.2 VH from PR007243; LALA
A word on the EC50: it is the midpoint of the concentration-response curve. Low values mean an effect from little substance, high ones a need for much substance. Turning to B1, the EC50 stood at 81.9 nM in assay [1] and 25.3 nM in the assay with human CLDN18.2 [4]. The “TDCC, Titer EC50 (pM), NUGC4_D8” value in the assay with human CLDN18.2 [2] amounted to 14.8 pM. Besides, in assay [3], the “TDCC, Titer EC50 (pM), SNU620” value is 41.1 pM.

B2: PR007082 (bispecific antibody, human IgG1, lambda)
chain: EVQLVESGGGLVQPGGSLRLSCAASGFTFSSYWMHWVRQVPGKGLVWVSRINHDSSRTIYADSVKGRFTISRDNAKNTLYLQMNSLRAEDTAVYYCARGEDHDILTGYPIRGQGTTVTVSSGGGGSGGGGSGGGGSEVQLVESGGGLVQPGGSLRLSCAASGFTFSSYWMHWVRQVPGKGLVWVSRINHDSSRTIYADSVKGRFTISRDNAKNTLYLQMNSLRAEDTAVYYCARGEDHDILTGYPIRGQGTTVTVSSASEPKSSDKTHTCPPCPAPEAAGAPSVFLFPPKPKDTLMISRTPEVTCVVVDVSHEDPEVKFNWYVDGVEVHNAKTKPREEQYNSTYRVVSVLTVLHQDWLNGKEYKCKVSNKALPAPIEKTISKAKGQPREPQVCTLPPSREEMTKNQVSLSCAVKGFYPSDIAVEWESNGQPENNYKTTPPVLDSDGSFFLVSKLTVDKSRWQQGNVFSCSVMHEALHNHYTQKSLSLSPGK
heavy: EVQLVESGGGLVQPGGSLKLSCAASGFTFSTYAMNWVRQASGKGLEWVGRIRSKYNNYATYYADSVKDRFTISRDDSKNTAYLQMNSLKTEDTAVYYCTRHGNFGNSYVSWFAYWGQGTLVTVSSASTKGPSVFPLAPSSKSTSGGTAALGCLVKDYFPEPVTVSWNSGALTSGVHTFPAVLQSSGLYSLSSVVTVPSSSLGTQTYICNVNHKPSNTKVDKKVEPKSCDKTHTCPPCPAPEAAGAPSVFLFPPKPKDTLMISRTPEVTCVVVDVSHEDPEVKFNWYVDGVEVHNAKTKPREEQYNSTYRVVSVLTVLHQDWLNGKEYKCKVSNKALPAPIEKTISKAKGQPREPQVYTLPPCREEMTKNQVSLWCLVKGFYPSDIAVEWESNGQPENNYKTTPPVLDSDGSFFLYSKLTVDKSRWQQGNVFSCSVMHEALHNHYTQKSLSLSPGK
light: QAVVTQEPSLTVSPGGTVTLTCRSSTGAVTTSNYANWVQQKPGQAPRGLIGGTNKRAPWTPARFSGSLLGDKAALTLLGAQPEDEAEYFCALWYSNLWVFGGGTKLTVLGQPKAAPSVTLFPPSSEELQANKATLVCLISDFYPGAVTVAWKADSSPVKAGVETTTPSKQSNNKYAASSYLSLTPEQWKSHRSYSCQVTHEGSTVEKTVAPTECS
notes: structure 1; CD3 Fab from PR003886, CLDN18.2 VH from PR007248; AAA
As for B2, the EC50 in [1] amounted to 41 nM; with human CLDN18.2 [5], 44.2 nM.

B3: PR004950 (antibody, V domains shown)
VH: EVQLVESGGGLVQPGGSLRLSCAASGFTFSAYWMHWVRQVPGKGLVWVSRINSDGSRTIYADSVKGRFTISRDNAKNTLYLQMNSLRAEDTAVYYCARGEDHDILTGYPIRGQGTMVTVSS
notes: anti-CLDN18.2 HCAb: VH fused to human IgG1 Fc, no light chain; also called R1029P021F07
What is called IC50 is the concentration at which inhibition is half-maximal. The low end stands for greater potency, the high end for weaker potency. Turning to B3, in the assay with human CLDN18.2 [6], the EC50 came out at 14.6 nM and the “Emax (MFI)” value worked out at 13600 MFI. Besides, in the assay with human CLDN18.2 [7], the EC50 worked out at 16.1 nM and the “Emax (MFI)” value stood at 206000 MFI. In addition, in the assay with human CLDN18.2 [8], the IC50 stood at 23.5 nM and the “Maximum inhibition rate (%)” value came to 98.5%. In the assay with human CLDN18.2 [9], the IC50 worked out at 19.9 nM and the “Maximum inhibition rate (%)” value stood at 94.3%.
